Measurements: patent US20210238288A1 (Genentech, published 2021)

How the values were obtained:
α4β7 integrin = biological target: T1, α4β7 integrin (human, UniProt P13612 34-970; P26010 20-723); assay: method not stated
T1 construct: Heterodimer; also called alpha4beta7

αEβ7 integrin = biological target: T2, αEβ7 integrin (human, UniProt P38570 19-1124; P26010 20-723); assay: method not stated
T2 construct: Heterodimer; also called alphaEbeta7; CD103 (αE subunit)
T2 sequence (P38570 19-1124, chain 1 of 2): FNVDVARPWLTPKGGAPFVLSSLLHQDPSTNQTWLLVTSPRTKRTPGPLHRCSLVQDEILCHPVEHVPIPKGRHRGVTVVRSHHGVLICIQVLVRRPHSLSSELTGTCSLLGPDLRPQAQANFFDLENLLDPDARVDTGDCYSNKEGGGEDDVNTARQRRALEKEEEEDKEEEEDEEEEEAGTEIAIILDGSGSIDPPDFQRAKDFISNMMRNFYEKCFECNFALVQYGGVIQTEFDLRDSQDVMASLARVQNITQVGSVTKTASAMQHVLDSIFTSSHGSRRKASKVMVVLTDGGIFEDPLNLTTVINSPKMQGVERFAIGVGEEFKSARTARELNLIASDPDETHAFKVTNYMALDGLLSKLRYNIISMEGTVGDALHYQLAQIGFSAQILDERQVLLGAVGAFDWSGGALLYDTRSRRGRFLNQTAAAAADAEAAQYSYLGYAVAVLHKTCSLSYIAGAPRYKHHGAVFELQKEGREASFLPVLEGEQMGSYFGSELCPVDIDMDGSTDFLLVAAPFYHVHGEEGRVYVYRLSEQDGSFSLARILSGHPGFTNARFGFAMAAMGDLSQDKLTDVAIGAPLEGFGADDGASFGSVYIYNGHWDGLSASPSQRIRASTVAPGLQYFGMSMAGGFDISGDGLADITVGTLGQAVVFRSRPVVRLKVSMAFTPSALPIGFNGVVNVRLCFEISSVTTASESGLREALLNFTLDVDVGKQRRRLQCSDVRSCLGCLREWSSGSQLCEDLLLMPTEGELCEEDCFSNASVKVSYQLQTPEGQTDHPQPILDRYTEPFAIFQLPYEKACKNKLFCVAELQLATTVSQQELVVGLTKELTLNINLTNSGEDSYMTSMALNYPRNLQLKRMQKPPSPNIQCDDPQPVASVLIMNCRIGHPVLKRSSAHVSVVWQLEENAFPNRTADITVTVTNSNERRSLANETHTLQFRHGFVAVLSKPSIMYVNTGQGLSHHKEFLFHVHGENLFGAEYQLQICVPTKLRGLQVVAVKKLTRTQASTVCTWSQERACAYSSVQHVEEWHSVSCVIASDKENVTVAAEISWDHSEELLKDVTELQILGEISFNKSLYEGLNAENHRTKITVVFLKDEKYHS
T2 sequence (P26010 20-723, chain 2 of 2): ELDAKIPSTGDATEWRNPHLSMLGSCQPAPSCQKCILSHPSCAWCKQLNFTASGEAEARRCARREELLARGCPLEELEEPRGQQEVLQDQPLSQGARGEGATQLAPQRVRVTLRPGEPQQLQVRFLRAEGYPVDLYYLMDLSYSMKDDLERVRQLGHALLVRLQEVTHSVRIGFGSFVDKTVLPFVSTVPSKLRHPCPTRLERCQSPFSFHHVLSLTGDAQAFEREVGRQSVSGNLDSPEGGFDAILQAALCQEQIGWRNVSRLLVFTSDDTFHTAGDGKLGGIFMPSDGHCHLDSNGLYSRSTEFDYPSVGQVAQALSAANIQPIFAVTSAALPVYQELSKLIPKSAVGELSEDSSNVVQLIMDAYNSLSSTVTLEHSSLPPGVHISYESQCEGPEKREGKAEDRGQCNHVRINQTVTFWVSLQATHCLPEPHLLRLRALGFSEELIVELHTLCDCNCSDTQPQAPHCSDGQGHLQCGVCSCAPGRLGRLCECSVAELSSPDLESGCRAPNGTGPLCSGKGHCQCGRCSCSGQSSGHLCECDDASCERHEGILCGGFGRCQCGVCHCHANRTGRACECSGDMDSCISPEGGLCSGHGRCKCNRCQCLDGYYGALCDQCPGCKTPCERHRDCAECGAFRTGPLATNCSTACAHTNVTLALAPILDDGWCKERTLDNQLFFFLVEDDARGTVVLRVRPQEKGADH

B1: rhuMAb Beta7 (etrolizumab) (antibody, V domains shown)
VH: EVQLVESGGGLVQPGGSLRLSCAASGFFITNNYWGWVRQAPGKGLEWVGYISYSGSTSYNPSLKSRFTISRDTSKNTFYLQMNSLRAEDTAVYYCARTGSSGYFDFWGQGTLVTVSS
VL: DIQMTQSPSSLSASVGDRVTITCRASESVDDLLHWYQQKPGKAPKLLIKYASQSISGVPSRFSGSGSGTDFTLTISSLQPEDFATYYCQQGNSLPNTFGQGTKVEIKR
- Kd (α4β7 integrin): ~0.116 nM
- Kd (αEβ7 integrin): ~1.8 nM
